According to patent US20240358849A1 (SUZHOU FUSE BIOSCIENCES, published 2024):
Substitutions are numbered along the chain they refer to. Names may count otherwise.

T1: IL-2hex, mutant human IL-2 (deltaA1/T3A/F42A/Y45A/L72G/C125S) (human, UniProt P60568 22-153)
T1 chain: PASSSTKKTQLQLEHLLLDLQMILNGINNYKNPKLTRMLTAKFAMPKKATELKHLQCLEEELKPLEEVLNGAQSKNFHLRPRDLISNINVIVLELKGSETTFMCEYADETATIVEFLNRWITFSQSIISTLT

B1: anti-IL-2/anti-FAP two-in-one antibody D029 (bispecific antibody, V domains shown)
VH: EVQLVESGGGLVQPGGSLRLSCAASGFTFTWSFMSWVRQAPGKGLEWVSWIGPSGSYTDYADSVKGRFTISRDNSKNTLYLQMNSLRAEDTAVYYCARSQYGRYYSPDYYFDYWGQGTLVTVSS
VL: DIQMTQSPSSLSASVGDRVTITCRASQDGGNYLNWYQQKPGKAPKLLIYGASTLYSGVPSRFSGSGSGTDFTLTISSLQPEDFATYYCQQGRTPPLTFGQGTKVEIKR
B2: D029HV4LV2 (bispecific antibody, V domains shown)
VH: B1 VH with T30S, W31R, S32F, S56L
VL: B1 VL with Q27G, D28A, G29L, N31F, G50A, T53S, Y55S, P94Y, L96F
notes: also called Rev1-Q27G/P94Y/L96F:H1V9
B3: D029HV6LV2 (bispecific antibody, V domains shown)
VH: B1 VH with S32A, S56L
VL: B1 VL with Q27G, D28A, G29L, N31F, G50A, T53S, Y55S, P94Y, L96F
notes: also called Rev1-Q27G:P94Y:L96F/S55L:S32A
B4: D029 HV2LV2 (bispecific antibody, V domains shown)
VH: B1 VH with S32F, S56L
VL: B1 VL with Q27G, D28A, G29L, N31F, G50A, T53S, Y55S, P94Y, L96F
notes: also called Rev1-Q27G:P94Y:L96F/S55L:S32F
B5: D029 HV3LV1 (bispecific antibody, V domains shown)
VH: B1 VH with T30R, S32F, S56L
VL: B1 VL with D28A, G29L, N31F, G50A, T53S, Y55S
notes: also called D029L-Rev1/S55L:T30R:S32F; Rev1/S55L:T30R:S32F
B6: D029 HV5LV1 (bispecific antibody, V domains shown)
VH: B1 VH with T30R, S32A, S56L
VL: B1 VL with D28A, G29L, N31F, G50A, T53S, Y55S
notes: also called Rev1/S55L:T30R:S32A
B7: D029 HV2LV4 (bispecific antibody, V domains shown)
VH: B1 VH with S32F, S56L
VL: B1 VL with Q27G, D28A, G29L, N31F, G50A, T53S, Y55S, P94Y
notes: also called Rev1-Q27G:P94Y/S55L:S32F
B8: Rev1-Q27G/P94Y/L96F:H1V11 (bispecific antibody, V domains shown)
VH: B1 VH with W31Y, S32F, S56L
VL: B1 VL with Q27G, D28A, G29L, N31F, G50A, T53S, Y55S, P94Y, L96F
notes: H1V11 = D029 VH with W31Y:S32F:S55L; also called H1V11 with D029LV2
B9: D029 HV3LV2 (bispecific antibody, V domains shown)
VH: B1 VH with T30R, S32F, S56L
VL: B1 VL with Q27G, D28A, G29L, N31F, G50A, T53S, Y55S, P94Y, L96F
notes: also called D029L-Rev1:Q27G:P94Y:L96F/S55L:T30R:S32F
B10: Rev1-Q27G/P94Y/L96F:H1V10 (bispecific antibody, V domains shown)
VH: B1 VH with T30S, W31R, S56L
VL: B1 VL with Q27G, D28A, G29L, N31F, G50A, T53S, Y55S, P94Y, L96F
notes: H1V10 = D029 VH with T30S:W31R:S55L; also called H1V10 with D029LV2
B11: D029 HV3LV4 (bispecific antibody, V domains shown)
VH: B1 VH with T30R, S32F, S56L
VL: B1 VL with Q27G, D28A, G29L, N31F, G50A, T53S, Y55S, P94Y
notes: also called D029-Rev1:Q27G:P94Y/S55L:T30R:S32F
B12: D029 HV2LV1 (bispecific antibody, V domains shown)
VH: B1 VH with S32F, S56L
VL: B1 VL with D28A, G29L, N31F, G50A, T53S, Y55S
notes: also called Rev1/S55L:S32F
B13: 872-5 VH Q96L (antibody, V domains shown)
VH: EVQLVESGGGLVQPGGSLRLSCAASGFTFRGYIMSWVRQAPGKGLEWVSWISPEGSRTGYADSVKGRFTISRDNSKNTLYLQMNSLRAEDTAVYYCARLLYGTWFDYWGQGTLVTVSS
VL: DIQMTQSPSSLSASVGDRVTITCRASQSISSYLNWYQQKPGKAPKLLIYAASSLQSGVPSRFSGSGSGTDFTLTISSLQPEDFATYYCQQATLLLPTFGQGTKVEIKR
B14: 872-5 VH S52G:VL A91G/T92R (antibody, V domains shown)
VH: B13 VH with S52G, L100Q
VL: DIQMTQSPSSLSASVGDRVTITCRASQSISSYLNWYQQKPGKAPKLLIYAASSLQSGVPSRFSGSGSGTDFTLTISSLQPEDFATYYCQQGRLLLPTFGQGTKVEIK
notes: BLI per 6.1.3
B15: 872-5 VL A91G/T92R (antibody, V domains shown)
VH: B13 VH with L100Q
VL: B13 VL with A91G, T92R
notes: BLI per 6.1.3
B16: 872-5 VL A91G (antibody, V domains shown)
VH: B13 VH with L100Q
VL: B13 VL with A91G
notes: BLI per 6.1.3 (monovalent Fab-Fc)
B17: 872-5 VL T92R (antibody, V domains shown)
VH: B13 VH with L100Q
VL: B13 VL with T92R
notes: BLI per 6.1.3
B18: 872-5 VH S52G/Q96L:VL A91G/T92R (antibody, V domains shown)
VH: B13 VH with S52G
VL: B13 VL with A91G, T92R
notes: BLI per 6.1.3
B19: 872-5 VH Q96L:VL A91G/T92R (antibody, V domains shown)
VH: B13 VH
VL: B13 VL with A91G, T92R
notes: BLI per 6.1.3
B20: 872-5 VH S52G/Q96L (antibody, V domains shown)
VH: B13 VH with S52G
VL: B13 VL
notes: BLI per 6.1.3
B21: 872-5 VH S52G/Q96L/VL T92R (antibody, V domains shown)
VH: B13 VH with S52G
VL: B13 VL with T92R
notes: BLI per 6.1.3
B22: 872-5 VH S52G (antibody, V domains shown)
VH: B13 VH with S52G, L100Q
VL: B13 VL
notes: BLI per 6.1.3

molecular target: human FAP expressed on cells (HEK 293T-hFAP-E5; ExpiCHO-hFAP) (human, UniProt Q12884 1-760); assay: cell-based or functional assay

Row | EC50 of HEK-Blue IL2 assay (pM) with HEK 293T-hFAP-E5; variant as masking moiety of a configuration 3 immunoconjugate | Binder
1 | 56 pM | B1
2 | 40 pM | B2
3 | 145 pM | B3
4 | 27 pM | B4
5 | 35 pM | B5
6 | 41 pM | B6
7 | 43 pM | B7
8 | 57 pM | B8
9 | 186 pM | B9
10 | 117 pM | B10
11 | 208 pM | B11
12 | 78 pM | B12

Molecular target: T1, IL-2hex, mutant human IL-2 …
Assay: cell-based or functional assay

Row | EC50 of HEK-Blue IL2 assay (pM) with HEK 293T; variant as masking moiety of a configuration 3 immunoconjugate | Binder
13 | 1510 pM | B1
14 | 6100 pM | B2
15 | 4820 pM | B3
16 | 6060 pM | B4
17 | 7380 pM | B5
18 | 5630 pM | B6
19 | 5140 pM | B7
20 | 9370 pM | B8
21 | 5330 pM | B9
22 | 14800 pM | B10
23 | 4120 pM | B11
24 | 9260 pM | B12

molecular target: T2, human Fibroblast Activation Protein (FAP), soluble antigen (human, UniProt Q12884 26-760, biotinylated when immobilized on streptavidin sensors); assay: BLI per 6.1.3, human FAP;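 further: biolayer interferometry with immobilized antigen on sensors, antibody association up to 240 s then dissociation up to 420 s, reference-subtracted, global 1:1 fit with unlinked Rmax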
T2 construct: also called hFAP; biotinylated FAP

Row | Kd | koff | kon | Binder
25 | 1.5 nM | 0.000794 s⁻¹ | 542000 M⁻¹ s⁻¹ | B13
26 | 2.2 nM | 0.00148 s⁻¹ | 673000 M⁻¹ s⁻¹ | B14
27 | 0.398 nM | 0.000411 s⁻¹ | 1.03e+06 M⁻¹ s⁻¹ | B15
28 | 0.78 nM | 0.00102 s⁻¹ | 1.3e+06 M⁻¹ s⁻¹ | B16
29 | 1.6 nM | 0.001 s⁻¹ | 614000 M⁻¹ s⁻¹ | B17
30 | 0.241 nM | 0.000178 s⁻¹ | 737000 M⁻¹ s⁻¹ | B18
31 | 0.707 nM | 0.000571 s⁻¹ | 812000 M⁻¹ s⁻¹ | B19
32 | 0.251 nM | 0.000161 s⁻¹ | 645000 M⁻¹ s⁻¹ | B20
33 | 0.087 nM | 7.61e-05 s⁻¹ | 878000 M⁻¹ s⁻¹ | B21
34 | 2.2 nM | 0.00138 s⁻¹ | 642000 M⁻¹ s⁻¹ | B22

molecular target: T2, human Fibroblast Activation Protein …; assay: Affinity (nM), Table 13B

Row | Kd | Binder
35 | 0.51 nM | B2
36 | 62 nM | B3
37 | 2 nM | B4
38 | 3.6 nM | B6
39 | 1.5 nM | B7
40 | 0.51 nM | B8
41 | 100 nM | B9
42 | 10 nM | B10
43 | 2.3 nM | B11
44 | 1.8 nM | B12

Molecular target: T1, IL-2hex, mutant human IL-2 …
Assay: Affinity (nM), Table 13B

Row | Kd | Binder
45 | 431 nM | B1
46 | 4500 nM | B2
47 | 199 nM | B3
48 | 419 nM | B4
49 | 237 nM | B5
50 | 331 nM | B6
51 | 1590 nM | B7
52 | 600 nM | B8
53 | 100 nM | B9
54 | 700 nM | B10
55 | 528 nM | B11
56 | 1100 nM | B12

molecular target: T2, human Fibroblast Activation Protein …; assay: BLI per 6.1.3

Row | Kd | Binder
57 | 1.98 nM | B4
58 | 1.79 nM | B5
59 | > 100 nM | B6
60 | 1.53 nM | B7
61 | 3.58 nM | B9
62 | 1.8 nM | B11
63 | 2.31 nM | B12

Molecular target: T1, IL-2hex, mutant human IL-2 …
Assay: BLI per 6.1.3; column head IL-2 KD

Row | Kd | Binder
64 | 431 nM | B1
65 | 419 nM | B4
66 | 427 nM | B5
67 | 100 nM | B6
68 | 1590 nM | B7
69 | 331 nM | B9
70 | 1100 nM | B11
71 | 528 nM | B12
